Sequences and labels used below:
B1: OR4K15 (parent)
chain: GUUAACGGUCAUAGGCCAUGGAAACUAGGAGCACCAUUUCGCUGCCAGUGAAGAAAUGAACAAAGAAAAUCUGGGCCAGGCAGGCAUCAAAAGAAAUAGUCUUGCGCUCAACCAGAAAGUCUGUAAUCAUUUUAAGGGUA

The variants in the data set derive from B1. As to the kind of experiment: self-cleavage, relative activity (ratio to wild type); higher = more cleavage; in vitro, sequencing; the parent is a self-cleaving ribozyme.
For GUUAACGGUCAUAGGCCAUGGAAACUAGGAGCACCAUUUCGCUGCCAGUGAAGAAAUGAACGAAGAAAAUCUGGGCCAGGCAGGCAUCAAAAGAAAUAGUCUUGCGCUCAACCAGAAAGUCUGUAAUCAUUUUAAAGGUA, the self-cleavage was 2.2.

Turning to GUUAACGGUCAUAGGCCAUGGAAACUAGGAGCACCAUUUCGCUGCCAGUGAAGAAAUGAACGAAGAAAAUCUGGGCCAGGCAGGCAUCAAAAGAAAUAGUCUUGCGCUCAACCAGAAAGUCUGUAAUCAUUUUAAUGGUA, the self-cleavage was found to be 1.1.

In the case of GUUAACGGUCAUAGGCCAUGGAAACUAGGAGCACCAUUUCGCUGCCAGUGAAGAAAUGAACGAAGAAAAUCUGAGCCAGGCAGGCAUCAAAAGAAAUAGUCUUGCGCUCAACCAGAAAGUCUGUAAUCAUUUUAAGGGUA, the self-cleavage is 0.24.

On to GUUAACGGUCAUAGGCCAUGGAAACUAGGAGCACCAUUUCGCUGCCAGUGAAGAAAUGAACGAAGAAAAUCUGGGCCAGGCAGGCAUCAAAAGAAAUAGUCUUGCGCUCAACCAUAAAGUCUGUAAUCAUUUUAAGGGUA, for which the self-cleavage was determined as 0.07.

With GUUAACGGUCAUAGGCCAUGGAAACUAGGAGCACCAUUUCGCUGCCAGUGAAGAAAUGAACGAAGAAAAUCAGGGCCAGGCAGGCAUCAAAAGAAAUAGUCUUGCGCUCAACCAGAAAGUCUGUAAUCAUUUUAAGGGUA, the self-cleavage was found to be 0.18.

For the variant GUUAACGGUCAUAGGCCAUGGAAACUAGGAGCACCAUUUCGCUGCCAGUGAAGAAAUGAACGAAGAAAAUCGGGGCCAGGCAGGCAUCAAAAGAAAUAGUCUUGCGCUCAACCAGAAAGUCUGUAAUCAUUUUAAGGGUA, the self-cleavage stood at 0.22.

For GUUAACGGUCAUAGGCCAUGGAAACUAGGAGCACCAUUUCGCUGCCAGUGAAGAAAUGAACGAAGAAAAUCUGGGCCAGGCAGGCAACAAAAGAAAUAGUCUUGCGCUCAACCAGAAAGUCUGUAAUCAUUUUAAGGGUA, the self-cleavage is 1.71.

For GUUAACGGUCAUAGGCCAUGGAAACUAGGAGCACCAUUUCGCUGCCAGUGAAGAAAUGAACGAAGAAAAUCUGGGCCAGGCAGGCACCAAAAGAAAUAGUCUUGCGCUCAACCAGAAAGUCUGUAAUCAUUUUAAGGGUA, the self-cleavage was 0.88.

On to GUUAACGGUCAUAGGCCAUGGAAACUAGGAGCACCAUUUCGCUGCCAGUGAAGAAAUGAACUAAGAAAAUCUGGGCCAGGCAGGCAUCAAAAGAAAUAGUCUUGCGCUCUACCAGAAAGUCUGUAAUCAUUUUAAGGGUA, for which the self-cleavage stood at 1.27.

With GUUAACGGUCAUAGGCCAUGGAAACUAGGAGCACCAUUUCGCUGCCAGUGAAGAAAUGAACGAAGAAAAUCUGGGCCAGGCAGGUAUCAAAAGAAAUAGUCUUGCGCUCAACCAGAAAGUCUGUAAUCAUUUUAAGGGUA, the self-cleavage is 0.63.

Consider GUUAACGGUCAUAGGCCAUGGAAACUAGGAGCACCAUUUCGCUGCCAGUGAAGAAAUGAACGAAGAAAAUCUGGGCCAGGCAGGCAUCAAAAGAAAUAGUCUUGCGCUCAACCAGAAAGUCUGUAAUCAUCUUAAGGGUA, for which the self-cleavage was determined as 1.29.

With GUUAACGGUCAUAGGCCAUGGAAACUAGGAGCACCAUUUCGCUGCCAGUGAAGAAAUGAACUAAGAAAAUCUGGGCCAGGCAGGCAUCGAAAGAAAUAGUCUUGCGCUCAACCAGAAAGUCUGUAAUCAUUUUAAGGGUA, the self-cleavage was 1.95.

Take GUUAACGGUCAUAGGCCAUGGAAACUAGGAGCACCAUUUCGCUGCCAGUGAAGAAAUGAACUAAGAAAAUCUGGGCCAGGCAGGCAUCUAAAGAAAUAGUCUUGCGCUCAACCAGAAAGUCUGUAAUCAUUUUAAGGGUA: the self-cleavage came to 1.93.

As for GUUAACGGUCAUAGGCCAUGGAAACUAGGAGCACCAUUUCGCUGCCAGUGAAGAAAUGAACGAAGAAAAUCUGGGCCAGGCAGGCAUCAAAAGAAAUAGUCUUGCGCCCAACCAGAAAGUCUGUAAUCAUUUUAAGGGUA, the self-cleavage came to 0.02.

Regarding GUUAACGGUCAUAGGCCAUGGAAACUAGGAGCACCAUUUCGCUGCCAGUGAAGAAAUGAACUAAGAAAAUCUGGGCCAGGCAGGCAUCAAAAGAAAUAGUCUUGCGCUCAGCCAGAAAGUCUGUAAUCAUUUUAAGGGUA, the self-cleavage stood at 0.02.

As for GUUAACGGUCAUAGGCCAUGGAAACUAGGAGCACCAUUUCGCUGCCAGUGAAGAAAUGAACGAAGAAAAUCUGGGCCAGGCAGGCAUCAAAAGAAAUAGUCUUGCGCUCAACCAGAAAGACUGUAAUCAUUUUAAGGGUA, the self-cleavage turned out to be 1.1.

GUUAACGGUCAUAGGCCAUGGAAACUAGGAGCACCAUUUCGCUGCCAGUGAAGAAAUGAACGAAGAAAAUCUGGGCCAGGCAGGCAUCAAAAGAAAUAGUCUUGCGCUCAACCAGAAAGUCUGUAAUCAUUUUAAGGGAA: the self-cleavage turned out to be 1.84.

In the case of GUUAACGGUCAUAGGCCAUGGAAACUAGGAGCACCAUUUCGCUGCCAGUGAAGAAAUGAACGAAGAAAAUCUGGGCCAGGCAGGCAUCAAAAGAAAUAGUCUUGCGCUCAACCAGAAAGUCUGUAAUCAUUUUAAGGGCA, the self-cleavage was determined as 1.62.

For the variant GUUAACGGUCAUAGGCCAUGGAAACUAGGAGCACCAUUUCGCUGCCAGUGAAGAAAUGAACUAAGAAAAUCUGGGCCAGGCAGGCAUCAAGAGAAAUAGUCUUGCGCUCAACCAGAAAGUCUGUAAUCAUUUUAAGGGUA, the self-cleavage was 0.94.

On to GUUAACGGUCAUAGGCCAUGGAAACUAGGAGCACCAUUUCGCUGCCAGUGAAGAAAUGAACGAAGAAAAUCUGGGCCAGGCAGGCAUCAAAAGAAAUAGUCUUGCGCUCAACCAGAAAGUCUGUAAUUAUUUUAAGGGUA, for which the self-cleavage is 1.13.

With GUUAACGGUCAUAGGCCAUGGAAACUAGGAGCACCAUUUCGCUGCCAGUGAAGAAAUGAACGAAGAAAAUCUGGGCCAGGCAGGCAUCAAAAGAAAUAGUCUUGCGCUCAACCAGAAAGUCUGUAAUCAUUAUAAGGGUA, the self-cleavage was determined as 1.9.

Regarding GUUAACGGUCAUAGGCCAUGGAAACUAGGAGCACCAUUUCGCUGCCAGUGAAGAAAUGAACGAAGAAAAUCUGGGCCAGGCAGGCAUCAAAAGAAAUAGUCUUGCGCUCAAGCAGAAAGUCUGUAAUCAUUUUAAGGGUA, the self-cleavage worked out at 0.

As to GUUAACGGUCAUAGGCCAUGGAAACUAGGAGCACCAUUUCGCUGCCAGUGAAGAAAUGAACGAAGAAAAUCUGGGCCAGGCAGGCAUCAAAAGAAAUAGUCUUGCGCUCAACCAGAAAGUCUGUAAUCGUUUUAAGGGUA, the self-cleavage amounted to 1.09.

Take GUUAACGGUCAUAGGCCAUGGAAACUAGGAGCACCAUUUCGCUGCCAGUGAAGAAAUGAACGAAGAAAAUCUGGGCCAGGCAGGCAUCAAAAGAAAUAGUCUUGCGCUCAACCAGAAAGUCUGUAAUCUUUUUAAGGGUA: the self-cleavage was determined as 0.89.

Consider GUUAACGGUCAUAGGCCAUGGAAACUAGGAGCACCAUUUCGCUGCCAGUGAAGAAAUGAACGAAGAAAAUCUGGGCCAGGCAGGCAUCAAAAGAAAUAGUCUUGCGCUCAACCAGAAAGUCAGUAAUCAUUUUAAGGGUA, for which the self-cleavage came to 1.07.

With GUUAACGGUCAUAGGCCAUGGAAACUAGGAGCACCAUUUCGCUGCCAGUGAAGAAAUGAACGAAGAAAAUCUGGGCCAGGCAGGCAUCAAAAGAAAUAGUCUUGCGCUCAACCAGAAAGUCUGUAAACAUUUUAAGGGUA, the self-cleavage turned out to be 1.79.

As for GUUAACGGUCAUAGGCCAUGGAAACUAGGAGCACCAUUUCGCUGCCAGUGAAGAAAUGAACGAAGAAAAUCUGGGCCAGGCAAGCAUCAAAAGAAAUAGUCUUGCGCUCAACCAGAAAGUCUGUAAUCAUUUUAAGGGUA, the self-cleavage amounted to 0.99.

Take GUUAACGGUCAUAGGCCAUGGAAACUAGGAGCACCAUUUCGCUGCCAGUGAAGAAAUGAACGAAGAAAAUCUGGGCCAGGCAGGCAUCAAAAGAAAUAGUCUUGUGCUCAACCAGAAAGUCUGUAAUCAUUUUAAGGGUA: the self-cleavage came to 0.14.

GUUAACGGUCAUAGGCCAUGGAAACUAGGAGCACCAUUUCGCUGCCAGUGAAGAAAUGAACGAAGAAAAUCUGGGCCAGGCAGGCAUCAAAAGAAAUAGUCUUGCGCUCAACCAGAAAGUCUGUAUUCAUUUUAAGGGUA: the self-cleavage was found to be 1.6.

Turning to GUUAACGGUCAUAGGCCAUGGAAACUAGGAGCACCAUUUCGCUGCCAGUGAAGAAAUGAACGAAGAAAAUCUGGGCCAGGCAGGCAUCAAAAGAAAUAGUCUUGCGCUCAACCAGAAAGUCUGUAGUCAUUUUAAGGGUA, the self-cleavage is 2.05.

For the variant GUUAACGGUCAUAGGCCAUGGAAACUAGGAGCACCAUUUCGCUGCCAGUGAAGAAAUGAACGAAGAAAAUCUGGGCCAGGCAGGCAUCAAAAGAAAUAGACUUGCGCUCAACCAGAAAGUCUGUAAUCAUUUUAAGGGUA, the self-cleavage amounted to 1.12.

For GUUAACGGUCAUAGGCCAUGGAAACUAGGAGCACCAUUUCGCUGCCAGUGAAGAAAUGAACGAAGAAAAUCUGGGCCAGGCAGGCAUCAAAAGAAAUAGCCUUGCGCUCAACCAGAAAGUCUGUAAUCAUUUUAAGGGUA, the self-cleavage is 2.17.

Consider GUUAACGGUCAUAGGCCAUGGAAACUAGGAGCACCAUUUCGCUGCCAGUGAAGAAAUGAACGAAGAAAAUCUGGGCCAGGCAGGCAUCAAAAGAAAUAGUCUUGCACUCAACCAGAAAGUCUGUAAUCAUUUUAAGGGUA, for which the self-cleavage stood at 0.01.

Take GUUAACGGUCAUAGGCCAUGGAAACUAGGAGCACCAUUUCGCUGCCAGUGAAGAAAUGAACGAAGAAAAUCUGGGCCAGGCAGGCAUCAAAAGAAAUAGUCAUGCGCUCAACCAGAAAGUCUGUAAUCAUUUUAAGGGUA: the self-cleavage worked out at 1.14.

For GUUAACGGUCAUAGGCCAUGGAAACUAGGAGCACCAUUUCGCUGCCAGUGAAGAAAUGAACGAAGAAAAUCUGGGCCAGGCAGGCAUCAAAAGAAAUAGUCUUGCGCUCAACCAGAAAGUCUGUAAUCAUUUUGAGGGUA, the self-cleavage stood at 1.72.

Regarding GUUAACGGUCAUAGGCCAUGGAAACUAGGAGCACCAUUUCGCUGCCAGUGAAGAAAUGAACUAAGAAAAUCUGGGCCAGGCAGGCAUCAAAAGAGAUAGUCUUGCGCUCAACCAGAAAGUCUGUAAUCAUUUUAAGGGUA, the self-cleavage was 2.47.

Regarding GUUAACGGUCAUAGGCCAUGGAAACUAGGAGCACCAUUUCGCUGCCAGUGAAGAAAUGAACGAAGAAAAUCUGGGCCAGGCAGGCAUCAAAAGAAAUAGUCUUGCGCUCAACCAGAAAGUCUGUAAUCAUUUUAGGGGUA, the self-cleavage came out at 2.19.

GUUAACGGUCAUAGGCCAUGGAAACUAGGAGCACCAUUUCGCUGCCAGUGAAGAAAUGAACUAAGAAAAUCUGGGCCAGGCAGGCAUCAAAAGAAAUAGUCUUGCGCUCAACCAGAAAGUCUGUAAUCAUUUUAAGGGUA: the self-cleavage stood at 1.53.

GUUAACGGUCAUAGGCCAUGGAAACUAGGAGCACCAUUUCGCUGCCAGUGAAGAAAUGAACGAAGAAAAUCUGGGCCAGGCAGGCAUCAAAAGAAAUAGUCUUGCGCUCAACCAGAAAGUCUGUAAUCAUUUUAAGGGUG: the self-cleavage is 1.36.

GUUAACGGUCAUAGGCCAUGGAAACUAGGAGCACCAUUUCGCUGCCAGUGAAGAAAUGAACUAAGAAAAUCUGGGCCUGGCAGGCAUCAAAAGAAAUAGUCUUGCGCUCAACCAGAAAGUCUGUAAUCAUUUUAAGGGUA: the self-cleavage amounted to 0.33.

As to GUUAACGGUCAUAGGCCAUGGAAACUAGGAGCACCAUUUCGCUGCCAGUGAAGAAAUGAACUAAGAAAAUCUGGGCCGGGCAGGCAUCAAAAGAAAUAGUCUUGCGCUCAACCAGAAAGUCUGUAAUCAUUUUAAGGGUA, the self-cleavage was 0.28.

For the origin of these results see the RNAGym collection of RNA variant scans (doi:10.7554/elife.90254).
